# In the supplement of paper PMC12338614:
# ± gives the uncertainty stated by the source.
# B1: library; numbered along this chain (parent)
# chain: MEVVDPQQLGMFTEGELMSVGMDTFIHRIDSTEVIYQPRRKRAKLIGKYLMGDLLGEGSYGKVKEVLDSETLCRRAVKILKKKKLRRIPNGEANVKKEIQLLRRLRHKNVIQLVDVLYNEEKQKMYMVMEYCVCGMQEMLDSVPEKRFPVCQAHGYFCQLIDGLEYLHSQGIVHKDIKPGNLLLTTGGTLKISDLGVAEALHPFAADDTCRTSQGSPAFQPPEIANGLDTFSGFKVDIWSAGVTLYNITTGLYPFEGDNIYKLFENIGKGSYAIPGDCGPPLSDLLKGMLEYEPAKRFSIRQIRQHSWFRKKHPPAEAPVPIPPSPDTKDRWRSMTVVPYLEDLHGADEDEDLFDIEDDIIYTQDFTVPGQVPEEEASHNGQRRGLPKAVCMNGTEAAQLSTKSRAEGRAPNPARKACSASSKIRRLSACKQQ
# Variants of: B1
# Experiment: STK11 functional score (HeLa growth suppression), rescaled enrichment; synonymous median = 1, nonsense median = 0 (normalised score)
# Settings: with HeLa; variant type: missense
# Protocol: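 Deep mutational scan (TileSeq/POPCode codon randomisation) of full-length codon-optimised STK11 cDNA integrated at a Bxb1 landing pad (AAVS1) in HeLa cells. Restoring functional STK11 suppresses HeLa proliferation. Variant frequencies were measured by NGS before and after about two weeks of growth. The error-corrected enrichment log-ratio was rescaled so that synonymous median = 1 and nonsense median = 0, scores above 1 were compressed, and codon-level and three biological replicate scores were combined; error is the bootstrapped standard error. Scale: synonymous median = 1, nonsense median = 0; below 0.5 = damaging.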
row,Variant,STK11 functional score
1,L140W,-0.107 ± 0.081
2,L140T,0.232 ± 0.25
3,T402H,0.157 ± 0.63
4,T402C,1.33 ± 0.4
5,T402Y,1.43 ± 0.37
6,D208I,1.31 ± 0.36
7,K64C,0.813 ± 0.53
8,K64T,1.08 ± 0.1
9,K64W,1.39 ± 0.16
10,L344K,1.59 ± 0.27
11,T367W,1.4 ± 0.32
12,T367A,1.39 ± 0.11
13,S232Y,0.917 ± 0.16
14,S232V,0.841 ± 0.24
15,Q7Y,1.22 ± 0.087
16,P222I,1.13 ± 0.33
17,H174F,0.138 ± 0.044
18,H174N,0.317 ± 0.17
19,G227Q,1.26 ± 0.45
20,G227L,0.694 ± 0.15
21,L102F,1.11 ± 0.17
22,L102I,1.26 ± 0.2
23,S216A,0.851 ± 0.13
24,H379F,1.1 ± 0.23

row,Variant,STK11 functional score
1,H202M,1.19 ± 0.31
2,A397Y,1.38 ± 0.46
3,T185H,0.484 ± 0.13
4,T185L,1.08 ± 0.32
5,K97E,1.42 ± 0.45
6,P275D,1.63 ± 0.17
7,P339D,1.55 ± 0.23
8,P339Y,1.21 ± 0.39
9,S378F,1.41 ± 0.43
10,Q214R,1.45 ± 0.14
11,Q214A,1.18 ± 0.19
12,R331S,1.32 ± 0.29
13,P203H,0.686 ± 0.62
14,E165R,1.18 ± 0.59
15,G370F,1.5 ± 0.27
16,E376I,1.54 ± 0.28
17,D359T,1.57 ± 0.21
18,I274H,0.363 ± 0.074
19,P149E,1.52 ± 0.19
20,V133D,1.53 ± 0.15
21,V133C,1.35 ± 0.33
22,K41D,1.39 ± 0.18
23,K178S,0.586 ± 0.12
24,D348G,1.26 ± 0.17

row,Variant,STK11 functional score
1,M127E,1.59 ± 0.1
2,D194H,-0.252 ± 0.32
3,D229P,1.68 ± 0.15
4,N259F,1.25 ± 0.24
5,N259R,1.13 ± 0.46
6,L184V,1.01 ± 0.21
7,L184W,0.145 ± 0.09
8,L184G,0.204 ± 0.079
9,L184C,0.804 ± 0.36
10,A295V,1.17 ± 0.28
11,G188D,1.43 ± 0.16
12,G188P,1.36 ± 0.34
13,G188C,0.212 ± 0.11
14,G188S,1.05 ± 0.37
15,V4I,1.43 ± 0.16
16,Q137R,0.73 ± 0.12
17,A43R,1.64 ± 0.26
18,F298V,0.839 ± 0.14
19,D365W,1.32 ± 0.24
20,P411W,0.581 ± 0.075
21,P411R,0.986 ± 0.35
22,P411M,1.58 ± 0.23
23,I260F,0.763 ± 0.1
24,A241G,0.802 ± 0.13

row,Variant,STK11 functional score
1,K403M,0.00927 ± 0.14
2,K403Q,1.61 ± 0.37
3,G10A,1.38 ± 0.17
4,D327A,1.28 ± 0.52
5,S213C,0.758 ± 0.11
6,S213A,1.38 ± 0.49
7,S213W,1.14 ± 0.092
8,R86T,1.69 ± 0.18
9,L263W,-0.0482 ± 0.1
10,E351M,0.992 ± 0.19
11,E375T,0.94 ± 0.28
12,E317H,1.25 ± 0.28
13,C278N,1.12 ± 0.22
14,P315N,1.51 ± 0.16
15,P315M,1.6 ± 0.19
16,Y60L,0.748 ± 0.29
17,I29L,1 ± 0.15
18,Y36N,1.6 ± 0.22
19,C158W,0.384 ± 0.11
20,K312S,1.29 ± 0.3
21,A200M,1.65 ± 0.14
22,L113H,0.781 ± 0.24
23,L113Q,1.02 ± 0.27
24,Q37L,1.15 ± 0.3

row,Variant,STK11 functional score
1,E57L,0.946 ± 0.29
2,V116E,1.52 ± 0.76
3,R384W,1.35 ± 0.15
4,R384T,1.15 ± 0.46
5,L67G,0.725 ± 0.17
6,K81D,1.28 ± 0.56
7,S169W,1.25 ± 0.35
8,S169P,0.391 ± 0.098
9,R426Y,1.54 ± 0.26
10,G268V,0.743 ± 0.19
11,G268R,1.44 ± 0.2
12,V372T,1.5 ± 0.21
13,A347F,1.37 ± 0.25
14,S421V,1.38 ± 0.18
15,D330E,0.786 ± 0.24
16,D330V,1.46 ± 0.3
17,D5N,1.24 ± 0.67
18,L55R,1.21 ± 0.11
19,L55P,1.23 ± 0.39
20,L427H,1.4 ± 0.25
21,Q305M,1.51 ± 0.15
22,A316Y,1.4 ± 0.12
23,A316W,0.538 ± 0.091
24,A316F,1.19 ± 0.28

row,Variant,STK11 functional score
1,Y261I,1.62 ± 0.16
2,E14P,1.65 ± 0.34
3,E14M,1.62 ± 0.18
4,D141F,1.52 ± 0.12
5,D141G,1.2 ± 0.36
6,L85T,-0.0975 ± 0.19
7,G56Y,-0.102 ± 0.094
8,Y118R,1.04 ± 0.18
9,Y118P,1.3 ± 0.14
10,Y118T,1.61 ± 0.14
11,S419E,1.24 ± 0.45
12,S419G,1.58 ± 0.034
13,I300S,0.391 ± 0.083
14,F255D,0.348 ± 0.1
15,F255Q,0.98 ± 0.44
16,F255H,0.97 ± 0.25
17,I224W,1.3 ± 0.41
18,S193A,0.853 ± 0.12
19,S193F,-0.0251 ± 0.091
20,G394R,1.17 ± 0.3
21,T189L,1.24 ± 0.39
22,N266D,1.13 ± 0.43
23,K48Q,1.41 ± 0.37
24,K48S,1.37 ± 0.19

row,Variant,STK11 functional score
1,K175S,0.884 ± 0.23
2,K175T,1.07 ± 0.18
3,A218W,0.671 ± 0.25
4,A218N,1.35 ± 0.28
5,I356R,1.19 ± 0.38
6,C210S,0.964 ± 0.59
7,C210V,1 ± 0.26
8,T24P,1.65 ± 0.26
9,A318R,1.43 ± 0.34
10,A318Y,1.63 ± 0.31
11,A318L,1.58 ± 0.18
12,M22A,1.21 ± 0.85
13,E70G,0.582 ± 0.42
14,L9C,1.54 ± 0.14
15,N181F,-0.0897 ± 0.042
16,N393G,1.36 ± 0.31
17,I99L,0.855 ± 0.1
18,A420R,1.51 ± 0.28
19,M289P,-0.379 ± 0.11
20,L341H,0.315 ± 0.23
21,L341W,1.25 ± 0.43
22,C418I,1.41 ± 0.31
23,I88L,1.24 ± 0.26
